Patent US20200010547A1

Molecular target: CD30 on CD30+ lymphoma cell lines (UniProt P28908)
Test: cell-based or functional assay

Sequence of UniProt P28908 (P28908 19-595 limits assumed): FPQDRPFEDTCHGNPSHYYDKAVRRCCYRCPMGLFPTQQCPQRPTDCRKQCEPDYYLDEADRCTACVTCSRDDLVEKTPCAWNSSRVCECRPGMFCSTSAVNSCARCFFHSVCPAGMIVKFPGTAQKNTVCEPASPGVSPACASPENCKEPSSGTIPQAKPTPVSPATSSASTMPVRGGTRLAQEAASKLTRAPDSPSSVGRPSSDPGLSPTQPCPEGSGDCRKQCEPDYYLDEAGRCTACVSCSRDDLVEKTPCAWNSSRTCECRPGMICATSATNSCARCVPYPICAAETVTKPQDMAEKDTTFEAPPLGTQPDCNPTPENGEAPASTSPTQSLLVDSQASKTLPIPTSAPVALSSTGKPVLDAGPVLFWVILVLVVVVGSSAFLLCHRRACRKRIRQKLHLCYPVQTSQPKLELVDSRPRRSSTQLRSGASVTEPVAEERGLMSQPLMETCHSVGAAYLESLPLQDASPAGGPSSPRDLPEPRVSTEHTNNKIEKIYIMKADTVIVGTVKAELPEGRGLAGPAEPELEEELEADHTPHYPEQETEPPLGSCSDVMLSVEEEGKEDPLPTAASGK

- specific lysis of CD30+ tumor cells by NK cells, 4-hour 51Cr release assay: 0.001 µg/mL
Substance: bispecific tetravalent CD30/CD16A tandem diabody AFM13 (bispecific antibody)
